Measured values from patent publication US20090022659A1 (ALDERBIO, published 2009).

B1: anti-TNF-α antibody Ab1 (antibody, V domains shown)
VH: QSVEESGGRLVTPGTPLTLTCTVSGFSLSTYNMGWVRQAPGKGLEYIGYVLGSGITYYASWAKGRFTISKTSTTVDLEITSPTTEDTATYFCARDAGGRASL
VL: ADIVMTQTPASVEAAVGGTVTIKCQASQNIRSWLAWYQQKPGQPPKLLIYGASTLASGVPSRFQGSGSGTEYTLTIIDLDCADAATYYCQSNYGSNDNSYGNG
notes: Rabbit-derived; they start with the leader peptide and end at CDR3 (no framework 4); no cleavage site is stated for this antibody
B2: anti-TNF-α antibody Ab13 (antibody, V domains shown)
VH: QSVEESGGRLVTPGTPLTLTCTVSGIDLSSYAMGWVRQAPGKGLEYIGYILSSGITYYASWARGRFTISKTSSTTVDLKMTSLTTEDTATYFCARNGNYNSGTDI
VL: ADIVMTQTPASVSEPVGGTVTIKCQASQNIYSTLAWYQQKPGQPPKLLIYLASTLASGVPSRFKGSGSGTQFTLTISDLECADAATYYCQTSHGSNSDSFGYA
B3: anti-TNF-α antibody Ab18 (antibody, V domains shown)
VH: QSVEESGGRLVTPGTPLTLTCTVSGIDLSSYAMGWVRQAPGKGLEYIGYILSSGITYYASWARGRFTISKTSSTTVDLKMTSLTTEDTATYFCVRNGNYNVGTDI
VL: ADIVMTQTPASVSEPVGGTVTIKCQASQNIYSTLAWYQQKPGQPPKLLIYLASTLESGVPSRFKGSGSGTEFTLTISDLECADAATYYCQTSHGSNSESFGYA
B4: anti-TNF-α antibody Ab14 (antibody, V domains shown)
VH: QSVEESGGRLVTPGTPLTLTCTVSGFSLSSYAMGWVRQAPGKGLEYIGYIGSSGITYYTSWARGRFTISKPSSTTVDLKMTSLTTEDTATYFCARNGNYNSGTDI
VL: ADIVMTQTPASVSEPVGGTVTIKCQASQNIYSTLAWYQQKPGQPPKLLIYLASTLASGVPSRFKGSGSGTQFTLTISDLECADAATYYCQTNHGSNSDSFGYA
B5: anti-TNF-α antibody Ab17 (antibody, V domains shown)
VH: QSLEESGGRLVTPGGSLTLTCTVSGIDLSSYAMGWVRQAPGKGLEYIGYVLGSGITYYASWARGRFTISKTSSTTVDLKMTSLTTEDTATYFCVRNDNYNSGTDI
VL: ADIVMTQTPASVSEPVGGTVTIKCQASQSIYSTLAWYQQKPGQPPKLLISLASTLASGVPSRFKGSGSGTQFTLTISDLECADAATYYCQTNHGSNSDSFGYA
B6: anti-TNF-α antibody Ab6 (antibody, V domains shown)
VH: METGLRWLLLVAVFKGVQCQSVEESGGRLVTPGTPLTLTCTVSGFSLSSNTISWVRQAPGKGLEWIGYIWRGVSTYYATWAKGRFTISKTSSTTVDLKITGPTTEDTATYFCARDAGDGGGYSLDL
VL: MDTRAPTQLLGLLLLWLPDARCAYDMTQTPASVEVAGGGTVTIKCQASQSIANRLAWYQQKPGQPPKLLIYYASTLASGVPSRFSGSGSGTEFTLTISGVQCDDAATYYCQQTYSDNNVDNA
B7: anti-TNF-α antibody Ab15 (antibody, V domains shown)
VH: QSVEESGGRLVSPGTPLTLTCTVSGIDLSSYGMGWVRQAPGKGLEYIGYMIASGITYYAAWAKGRFTISKTSSTTVDLKITSPTTEDTATYFCARNYYGMDP
VL: ADIVMTQTPASVSEPVGGTVTIKCQASQSIYSSFSWYQQIPGQRPKLLIYYASTLASGVPSRFSGSGSGTDFTLTISDLECADAATYYCQSNHGSNGDSFGNA
B8: anti-TNF-α antibody Ab7 (antibody, V domains shown)
VH: QSVEESGGRLVTPGTPLTLTCTVSGFSLSSDNMGWVRQAPGKGLEYIGYITYGGFTYYATWAKGRFTISKTSTTVDLKMTSPTTEDTATYFCAREAGGRANV
VL: ADIVMTQTPASVEAAVGGTVTINCQASQSIVSWLAWYQQKPGQPPKLLIYGASTLASGVPSRFKGSGSGTEYTLTISDLECADAATYYCQSNYGSNSHSFGNT
B9: anti-TNF-α antibody Ab9 (antibody, V domains shown)
VH: QSVEESGGRLVTPGTPLTLTCTVSGFSLSIYWMTWVRQAPGKGLEWIGVISTDGSAYYATWAKGRFTISKTSSTTVDLRITSPTTEDTATYFCAGGGGMDP
VL: AQVLTQTPSSVSAAVGGTVTVSCQSSQNVYNNNDFVWFQQKPGQPPKRLIYWASTLASGVPSRFKGSGSGTQFTLTINDLECDDAATYYCAGAYITELRT
B10: anti-TNF-α antibody Ab10 (antibody, V domains shown)
VH: QSVEESGGRLVTPGTPLTLTCTVSGFSLSIYWMTWVRQAPGRGLEWIGVISTDGTTYYANWAKGRFTISKASSTTVDLRITSPTTEDTATYFCAGGGGMDP
VL: AQVLTQTASSVSAAVGGTVTISCQSSQSVYNNNDFIWFQQKPGQPPKRLIYWASTLASGVSSRFKGSGSGTQFTLTINDLECDDAAVYYCAGAYDSEVRA
B11: anti-TNF-α antibody Ab11 (antibody, V domains shown)
VH: QSVEESGGRLVTPGTPLTLTCTVSGFSLSIYWMTWVRQAPGKGLEWIGVIASDGSTYYASWAKGRFTISKASSTTVDLKIASPTIEDTATYFCAGGGGMDP
VL: AQVMTQTPASVSAAVGGTVTISCQSSESVYNNNDLIWFRQKPGQPPKRLIYWASQLASGVSSRFKGSGSGTQFTLTINDLECDDAATYYCAGAYDSEIRA
B12: anti-TNF-α antibody Ab5 (antibody, V domains shown)
VH: QSVEESGGRLVTPGTPLTLTCAVSGFSLSVYWMTWVRQAPGKGLEWIGTISTDGITVYATWAKGRFTISKTSSTAVDLKLTSPTTEDTATYFCAGGGGMDP
VL: MDTRAPTQLLGLLLLWLPGATLAQVVTQTPASVSAAVGGTVTISCQSSQNVYNNNDLVWFQQKPGQPPKRLVYWASTLASGVSSRFRGSGSGTQFILTISDLQCDDAATYYCAGAYDSEIRA
B13: anti-TNF-α antibody Ab4 (antibody, V domains shown)
VH: QSVEESGGRLVTPGTPLTLTCTVSGLSLSTETINWVRQAPGKGLEWIGYIDSSGGTGYANWARGRFTISKTSTTVDLKITSPTTGDTATYFCARGTITTGMNI
VL: MDTRAPTQLLGLLLLWLTGATFAAVLTQTPSPVSAVVGGTVSISCQSSKRVVNSVALSWYQQKPGRSPKLLIYFASKLASGVPSRFKGSGSGTQFTLAISDVQCDDAATYYCAGHYTDSGDDA
B14: anti-TNF-α antibody Ab3 (antibody, V domains shown)
VH: QSVEESGGRLVTPGTPLTLTCKVSGFSLSSYDMTWVRQAPGKGLEWIGYIWNDGSTAYASWATGRFTISKTSTTVDLKIASPTTEDTATYFCARGPVFATTLGYYFTI
VL: MDTRAPTQLLGLLLLWLPGSTFAIKVTQTPASVSAAVGGTVSINCQASEDIESYLAWYQQKPGQPPKLLLYDASALASGVPSRFKGSGSGTEYTLTISGVECADAATYYCQQGYSYSNVDNS
B15: anti-TNF-α antibody Ab12 (antibody, V domains shown)
VH: QSVEESGGRLVTPGTPLTLTCTVSGFSLSHYAMGWVRQAPGKGLEWIGIISSNGVTYYATWASGRFTISKTSTTVDLKITSPTTEDTATYFCARGDDTSIIYYIYAFDL
VL: ALVMTQTPSPVSAAVGGTVTISCQSSESVVFNNRLSWYQQKPGQPPKLLIYWASTLASGVPSRFKGSGSGTQFTLTISGVECDDAATYYCAGYKSYSNDDFA
B16: anti-TNF-α antibody Ab2 (antibody, V domains shown)
VH: QSVEESGGRLVTPGTPLTLTCSVSGFSLNNYVMGWVRQAPGKGLEFIGYIAFGIGPYYASWAKGRFTISSTSSTTVDLKMTSLTPEDTATYFCARGDYSGNDI
VL: ADIVMTQTPSSVSEPVRGTVTIKCQASQNIYSYLSWYQQSPGQPPKLLIYKASTLASGVPSRFKGSGSGTDFTLTISDLECADAATYYCQSNYGSDSDSFGNA
B17: anti-TNF-α antibody Ab16 (antibody, V domains shown)
VH: QSLEESGGRLVKPDETLTITCTVSGIDLNNYNMGWVRQAPGKGLEYIGYILGSGITYYATWAKGRFTISKTSSTTVDLKMTSLTTEDTATYFCAGSIYYRGYGMDP
VL: ADIVMTQTPASVSEPVGGTVTIKCQASQTIYSSLSWYQQKPGQRPKLLIYAASTLASGVPSRFKGSGSGTDFTLTISDLECADAATYYCQSNHGSNSDSYGNA
B18: anti-TNF-α antibody Ab19 (antibody, V domains shown)
VH: QSVEESGGRLVTPGTPLTLTCSVSGFSLNNYIMGWVRQAPGKGLEFIGYIAFGIGPYYASWAKGRFTSSSTSSTTVDLKMTSLTPEDTATYFCARGDVSGNDI
VL: ADIVMTQTPSSVSEPVRGTVTIKCQASQNIYSYLSWYRQSPGQPPNLLIYKASTLASGVPSRFKGSGSGTDFTLTISDLECADAATYYCQSNYGSNSDSFGNA
B19: anti-TNF-α antibody Ab8 (antibody, V domains shown)
VH: QSVEESGGRLVTPGTPLTLTCTASGFSLSNYVMGWVRQAPGKGLEFIGYIAFGIGPYYATWAKGRFSISSTSSTTVDLTMTSLTPEDTATYFCARGDYSGNNI
VL: ADIVMTQTPSSVSEPVGGTVTIMCQASQNIYSYLSWYQQKPGQPPKLLIYKASTLASGVPSRFAGSGSGTDFTLTISDLECADAATYYCQSNYGSNSDSFGNA

Biological target: T1, Tumor Necrosis Factor-alpha (TNF-α), R&D systems 210-TA / 210-TA-CF (human, UniProt P01375 77-233)
T1 construct: Bought protein; also called huTNF-α
T1 sequence (P01375 77-233 limits assumed): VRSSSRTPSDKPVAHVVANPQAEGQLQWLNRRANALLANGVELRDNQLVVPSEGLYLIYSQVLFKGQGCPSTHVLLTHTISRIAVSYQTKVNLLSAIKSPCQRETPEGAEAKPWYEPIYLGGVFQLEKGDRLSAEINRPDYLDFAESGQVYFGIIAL
Assay: OD versus antibody concentration; the assay is not named for this figure (legend: binding affinity of the anti-TNF-α antibody Ab1)

With B1 the “EC50 (read off the curve)” value was ~0.05 mg/L.

Biological target: T1, Tumor Necrosis Factor-alpha (TNF-α), …
Assay: OD versus antibody concentration, fitted sigmoid; the assay is not named for this figure (legend: binding affinity of the anti-TNF-α antibody Ab1); the unit is that of the concentration axis, none stands beside the number

B1 gave an EC50 of 0.0461 mg/L.

Biological target: T1, Tumor Necrosis Factor-alpha (TNF-α), …
Assay: cell-based or functional assay

For B1, the “EC50 (read off the curve); OD versus antibody concentration (the assay is not named for this figure)” value was ~0.0006 mg/L.

Biological target: T1, Tumor Necrosis Factor-alpha (TNF-α), …
Assay: biolayer interferometry (Octet QK); biotinylated TNF-α on streptavidin sensor, antibody 8 nM to 1 nM
Description: Binding kinetics of certain Anti-TNF-α antibodies referenced in this experiment were determined using biolayer Interferometry on an Octet QK instrument (ForteBio, Menlo Park, Calif.). Biotinylated TNF-α (R&D systems part number 210-TA, biotinylated using Pierce EZ-link sulfo-NHS-LC-LC-biotin product number 21338 according to manufacturer's protocols) was initially bound onto a streptavidin coated biosensor (ForteBio, Menlo Park, Calif. part number 18-5006). TNF-α coated sensors were then incubated with the Anti-TNF-α antibodies at concentrations ranging from 8 nM to 1 nM. Binding was monitored as an increase in signal over a period of 900 seconds.
Sensors removed from the antibody dilutions and immediately incubated in diluent were monitored for a dissociation phase over an 1800 second time period. For these studies, all proteins were diluted using ForteBio's sample diluent buffer (ForteBio, Menlo Park, Calif. part number 18-5028). Analysis of Kinetic data was performed using ForteBio Software utilizing full dissociation modeling.

B2 and B3 cannot be ordered by Kd: 0.01 to 0.05 nM for the first, 0.01 nM for the second.

B4 and B5 are the same in Kd: 0.01 nM for the first, 0.01 nM for the second.

B6 and B7 are the same in Kd: 0.01 nM for the first, 0.01 nM for the second.

B1 and B8 are the same in Kd: 0.01 nM for the first, 0.01 nM for the second.

B9 and B10 cannot be ordered by Kd: 0.025 to 0.05 nM for the first, 0.015 to 0.03 nM for the second.

Compared with B11, B12 is higher in Kd: 0.02 nM for the first, 0.025 to 0.05 nM for the second.

First: B13
Second: B14
The Kd of the first is lower: 0.01 nM for the first, 0.02 to 0.04 nM for the second.

B15 and B16 cannot be ordered by Kd: 0.01 to 0.025 nM for the first, 0.01 nM for the second.

Going from B17 to B18, the Kd rises from 0.01 nM to 0.06 nM (6-fold). The first binds more tightly here.

In the case of B19, the Kd is reported as 0.01 nM.
